Source: patent US20180216138

Target: ferredoxin (CA_C0303) from Clostridium acetobutylicum

B1: Ferredoxin-NADP+ reductase from Clostridium acetobutylicum encoded by CA_C0764 (protein)
chain: MDNPNLLSEEANRCLLCKNPRCKANCPINTPIPEIISLYKEGKIMEAGEILFNNNPLSVICSLVCIHEDQCKGNCVRGIKSEPIKFHEIEEEISEKYLKEAKLKNVQKDKDRIAIVGGGPAGITVAFVLANKGYNVTIFEAHDKIGGVLRYGIPEYRLTKKLVDKLEERLIEVGVKIRPNTVIGPVISLDRLLEDSYKAVFIGTGVWNPKTLDVKGETLGNVHFAIDYLKSPESYRLGKKVAVIGAGNVAMDAARTAKRNGAEVTILYRKSFNEMPASKQEIRETKEDGVEFKLFRAPIEITEEGIKVAFTENVTDAEGKIRTKIIEGKEEFFECDSVVVAVSQAPKDNIVSNTTGLDTKWGLIVTDEKGNTTKKGTFACGDVVTGAKTVVEAAAQAKVVAETIDEYCKNN
Ferredoxin NADP+ reductase specific activity: 9.5 U/mg protein
